Test results: patent US20140087995A1 (published 2014)
Numbered stars: 1 amine (or outer) side, 2 acyl side, 3 side chain; on linkers, the order of the positions; unused ones are H or OH. Bridge positions count the residues as written; N and C are the ends. Side chains are listed from the residue outwards. Ends that are not written are not given here. * marks the point of attachment. C20 diacid = O=C(O)CCCCCCCCCCCCCCCCCCC(=O)*; γGlu = O=C(O)[C@H](CCC(=O)[*:2])N[*:1]; AEEA = NCCOCCOCC(=O)O

T1: human calcitonin receptor (human, UniProt P30988 25-474)
T1 construct: whole, on cells; Cell membranes of a stably transfected BHK cell line (Assay VII); also called hCTR; hCT
T1 sequence (looked up): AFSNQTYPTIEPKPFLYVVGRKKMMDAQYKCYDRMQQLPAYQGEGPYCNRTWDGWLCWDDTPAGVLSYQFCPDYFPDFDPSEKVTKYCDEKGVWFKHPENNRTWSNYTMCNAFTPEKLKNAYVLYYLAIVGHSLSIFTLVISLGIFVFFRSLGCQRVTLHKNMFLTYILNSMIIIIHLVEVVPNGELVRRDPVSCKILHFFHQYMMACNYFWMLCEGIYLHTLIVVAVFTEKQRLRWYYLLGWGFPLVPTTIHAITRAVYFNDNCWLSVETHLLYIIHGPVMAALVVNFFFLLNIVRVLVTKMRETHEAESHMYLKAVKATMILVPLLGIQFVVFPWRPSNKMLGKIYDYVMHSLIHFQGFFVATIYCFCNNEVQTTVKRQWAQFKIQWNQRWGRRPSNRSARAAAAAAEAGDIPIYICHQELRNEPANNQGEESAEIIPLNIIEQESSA

T2: rat calcitonin receptor (rat, UniProt P32214 25-516)
T2 construct: whole, on cells; Cell membranes of transiently transfected BHK tk'ts 13 cells (Assay VIII); also called rCTR; rCT
T2 sequence (looked up): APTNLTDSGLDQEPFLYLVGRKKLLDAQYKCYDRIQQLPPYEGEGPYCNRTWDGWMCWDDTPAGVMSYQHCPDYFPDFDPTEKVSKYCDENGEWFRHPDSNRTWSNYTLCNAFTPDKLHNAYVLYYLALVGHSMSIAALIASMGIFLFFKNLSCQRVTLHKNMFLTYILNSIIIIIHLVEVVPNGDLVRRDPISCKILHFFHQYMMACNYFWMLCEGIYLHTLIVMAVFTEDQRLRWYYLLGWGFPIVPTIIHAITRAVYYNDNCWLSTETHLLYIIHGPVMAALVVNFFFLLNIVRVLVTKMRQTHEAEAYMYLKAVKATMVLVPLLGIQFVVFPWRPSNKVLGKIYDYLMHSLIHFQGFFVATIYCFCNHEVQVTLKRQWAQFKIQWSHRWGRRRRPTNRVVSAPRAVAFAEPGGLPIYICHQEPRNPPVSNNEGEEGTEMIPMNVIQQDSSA

T3: rat amylin receptor (rat calcitonin receptor + rat RAMP 3) (rat, UniProt P32214 25-516; Q9JJ73 23-147)
T3 construct: whole, on cells; Cell membranes of transiently transfected BHK tk'ts 13 cells (Assay VI); also called rAmylin-R; rat amylin 3(a) receptor
T3 sequence (looked up) 1: T2 sequence (looked up)
T3 sequence (looked up) 2: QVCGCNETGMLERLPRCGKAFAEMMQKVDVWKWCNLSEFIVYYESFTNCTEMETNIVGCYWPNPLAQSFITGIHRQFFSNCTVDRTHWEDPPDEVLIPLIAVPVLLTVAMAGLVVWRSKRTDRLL

B1: N^α1-[(4S)-4-carboxy-4-(19-carboxynonadecanoylamino)butanoyl]-[Arg17,Pro21,Pro27,Pro31,Glu35]-h-amylin (peptide)
peptide: {C20 diacid-γGlu}-KCNTATCATQRLANFLRHSSPNFGAIPSSTPVGSETY-NH2
modifications: disulfide 2-7
SMILES: CC[C@H](C)[C@H](NC(=O)[C@H](C)NC(=O)CNC(=O)[C@H](Cc1ccccc1)NC(=O)[C@H](CC(N)=O)NC(=O)[C@@H]1CCCN1C(=O)[C@H](CO)NC(=O)[C@H](CO)NC(=O)[C@H](Cc1c[nH]cn1)NC(=O)[C@H](CCCNC(=N)N)NC(=O)[C@H](CC(C)C)NC(=O)[C@H](Cc1ccccc1)NC(=O)[C@H](CC(N)=O)NC(=O)[C@H](C)NC(=O)[C@H](CC(C)C)NC(=O)[C@H](CCCNC(=N)N)NC(=O)[C@H](CCC(N)=O)NC(=O)[C@@H](NC(=O)[C@H](C)NC(=O)[C@@H]1CSSC[C@H](NC(=O)[C@H](CCCCN)NC(=O)CC[C@H](NC(=O)CCCCCCCCCCCCCCCCCCC(=O)O)C(=O)O)C(=O)N[C@@H](CC(N)=O)C(=O)N[C@@H]([C@@H](C)O)C(=O)N[C@@H](C)C(=O)N[C@@H]([C@@H](C)O)C(=O)N1)[C@@H](C)O)C(=O)N1CCC[C@H]1C(=O)N[C@@H](CO)C(=O)N[C@@H](CO)C(=O)N[C@H](C(=O)N1CCC[C@H]1C(=O)N[C@H](C(=O)NCC(=O)N[C@@H](CO)C(=O)N[C@@H](CCC(=O)O)C(=O)N[C@H](C(=O)N[C@@H](Cc1ccc(O)cc1)C(N)=O)[C@@H](C)O)C(C)C)[C@@H](C)O
notes: Acylated analogue of human amylin; also called compound 28
B2: N^ε1-[2-[2-[2-[[2-[2-[2-[[(4S)-4-carboxy-4-(19-carboxynonadecanoylamino)butanoyl]amino]ethoxy]ethoxy]acetyl]amino]ethoxy]ethoxy]acetyl]-[Arg17,Pro21,Pro27,Glu35 … (peptide)
peptide: K([AEEA-AEEA-γGlu-C20 diacid])CNTATCATQRLANFLRHSSPNFGAIPSSTNVGSETY-NH2
modifications: disulfide 2-7; N-terminus assumed
SMILES: CC[C@H](C)[C@H](NC(=O)[C@H](C)NC(=O)CNC(=O)[C@H](Cc1ccccc1)NC(=O)[C@H](CC(N)=O)NC(=O)[C@@H]1CCCN1C(=O)[C@H](CO)NC(=O)[C@H](CO)NC(=O)[C@H](Cc1c[nH]cn1)NC(=O)[C@H](CCCNC(=N)N)NC(=O)[C@H](CC(C)C)NC(=O)[C@H](Cc1ccccc1)NC(=O)[C@H](CC(N)=O)NC(=O)[C@H](C)NC(=O)[C@H](CC(C)C)NC(=O)[C@H](CCCNC(=N)N)NC(=O)[C@H](CCC(N)=O)NC(=O)[C@@H](NC(=O)[C@H](C)NC(=O)[C@@H]1CSSC[C@H](NC(=O)[C@@H](N)CCCCNC(=O)COCCOCCNC(=O)COCCOCCNC(=O)CC[C@H](NC(=O)CCCCCCCCCCCCCCCCCCC(=O)O)C(=O)O)C(=O)N[C@@H](CC(N)=O)C(=O)N[C@@H]([C@@H](C)O)C(=O)N[C@@H](C)C(=O)N[C@@H]([C@@H](C)O)C(=O)N1)[C@@H](C)O)C(=O)N1CCC[C@H]1C(=O)N[C@@H](CO)C(=O)N[C@@H](CO)C(=O)N[C@H](C(=O)N[C@@H](CC(N)=O)C(=O)N[C@H](C(=O)NCC(=O)N[C@@H](CO)C(=O)N[C@@H](CCC(=O)O)C(=O)N[C@H](C(=O)N[C@@H](Cc1ccc(O)cc1)C(N)=O)[C@@H](C)O)C(C)C)[C@@H](C)O
notes: Acylated analogue of human amylin; also called compound 25
B3: N^α1N^α1-[(4S)-4-carboxy-4-(19-carboxynonadecanoylamino)butanoyl]-[Glu14,Arg17,Pro21,Pro27,Glu35]-h-amylin (peptide)
peptide: {C20 diacid-γGlu}-KCNTATCATQRLAEFLRHSSPNFGAIPSSTNVGSETY-NH2
modifications: disulfide 2-7
SMILES: CC[C@H](C)[C@H](NC(=O)[C@H](C)NC(=O)CNC(=O)[C@H](Cc1ccccc1)NC(=O)[C@H](CC(N)=O)NC(=O)[C@@H]1CCCN1C(=O)[C@H](CO)NC(=O)[C@H](CO)NC(=O)[C@H](Cc1c[nH]cn1)NC(=O)[C@H](CCCNC(=N)N)NC(=O)[C@H](CC(C)C)NC(=O)[C@H](Cc1ccccc1)NC(=O)[C@H](CCC(=O)O)NC(=O)[C@H](C)NC(=O)[C@H](CC(C)C)NC(=O)[C@H](CCCNC(=N)N)NC(=O)[C@H](CCC(N)=O)NC(=O)[C@@H](NC(=O)[C@H](C)NC(=O)[C@@H]1CSSC[C@H](NC(=O)[C@H](CCCCN)NC(=O)CC[C@H](NC(=O)CCCCCCCCCCCCCCCCCCC(=O)O)C(=O)O)C(=O)N[C@@H](CC(N)=O)C(=O)N[C@@H]([C@@H](C)O)C(=O)N[C@@H](C)C(=O)N[C@@H]([C@@H](C)O)C(=O)N1)[C@@H](C)O)C(=O)N1CCC[C@H]1C(=O)N[C@@H](CO)C(=O)N[C@@H](CO)C(=O)N[C@H](C(=O)N[C@@H](CC(N)=O)C(=O)N[C@H](C(=O)NCC(=O)N[C@@H](CO)C(=O)N[C@@H](CCC(=O)O)C(=O)N[C@H](C(=O)N[C@@H](Cc1ccc(O)cc1)C(N)=O)[C@@H](C)O)C(C)C)[C@@H](C)O
notes: Acylated analogue of human amylin; also called compound 22
B4: N^α1-[(4S)-4-carboxy-4-(19-carboxynonadecanoylamino)butanoyl]-[His14,Arg17,Pro21,Pro27,Glu35]-h-amylin (peptide)
peptide: {C20 diacid-γGlu}-KCNTATCATQRLAHFLRHSSPNFGAIPSSTNVGSETY-NH2
modifications: disulfide 2-7
SMILES: CC[C@H](C)[C@H](NC(=O)[C@H](C)NC(=O)CNC(=O)[C@H](Cc1ccccc1)NC(=O)[C@H](CC(N)=O)NC(=O)[C@@H]1CCCN1C(=O)[C@H](CO)NC(=O)[C@H](CO)NC(=O)[C@H](Cc1c[nH]cn1)NC(=O)[C@H](CCCNC(=N)N)NC(=O)[C@H](CC(C)C)NC(=O)[C@H](Cc1ccccc1)NC(=O)[C@H](Cc1c[nH]cn1)NC(=O)[C@H](C)NC(=O)[C@H](CC(C)C)NC(=O)[C@H](CCCNC(=N)N)NC(=O)[C@H](CCC(N)=O)NC(=O)[C@@H](NC(=O)[C@H](C)NC(=O)[C@@H]1CSSC[C@H](NC(=O)[C@H](CCCCN)NC(=O)CC[C@H](NC(=O)CCCCCCCCCCCCCCCCCCC(=O)O)C(=O)O)C(=O)N[C@@H](CC(N)=O)C(=O)N[C@@H]([C@@H](C)O)C(=O)N[C@@H](C)C(=O)N[C@@H]([C@@H](C)O)C(=O)N1)[C@@H](C)O)C(=O)N1CCC[C@H]1C(=O)N[C@@H](CO)C(=O)N[C@@H](CO)C(=O)N[C@H](C(=O)N[C@@H](CC(N)=O)C(=O)N[C@H](C(=O)NCC(=O)N[C@@H](CO)C(=O)N[C@@H](CCC(=O)O)C(=O)N[C@H](C(=O)N[C@@H](Cc1ccc(O)cc1)C(N)=O)[C@@H](C)O)C(C)C)[C@@H](C)O
notes: Acylated analogue of human amylin; also called compound 30

These binders were tested against T1, human calcitonin receptor (assay: ratio IC50 human calcitonin receptor / IC50 human amylin receptor).
Procedure: The resulting pellet was resuspended, homogenized and centrifuged (20.000 rpm, 15 min) in a buffer containing 20 mM Na-HEPES and 0.1 mM EDTA (pH 7.4, buffer 2). The resulting pellet was resuspended in buffer 2 and protein concentration was measured (BCA protein Assay, Pierce). The homogenate was kept cold during the whole procedure. The membranes were kept at −80° C. until use. The assay was performed in a 384 well Optiplate (PerkinElmer) in a total volume of 40 ul. Membranes were mixed with SPA beads. Final concentration of membranes 35 ng/μL final and SPA beads was 0.05 mg/well. Test-compounds were dissolved in DMSO and further diluted in assay buffer (50 mM Hepes, pH 7.4, 1 mM CaCl2, 5 mM MgCl₂, 0.1% OA and 0.02% Tween20). […] The final mixture was incubated with shaking at 400 rpm for 120 min at 25° C. prior to centrifugation (1500 rpm, 10 min). Samples were analyzed on TopCounter™ (Packard). The IC₅₀ was calculated using (one site binding competition analysis) GraphPad Prism5 as a measure of receptor affinity.
Membranes were prepared in the following way; the cells were rinsed with PBS and incubated with Versene for approximately 5 min before harvesting. The cells were flushed with PBS and the cell-suspension was centrifuged for 5 min at 1000 rpm. Cells were homogenized (Ultrathurrax) in a buffer containing 20 mM Na-HEPES and 10 mM EDTA (pH 7.4) and centrifuged at 20.000 rpm for 15 min. The resulting pellet was resuspended, homogenized and centrifuged (20.000 rpm, 15 min) in a buffer containing 20 mM Na-HEPES and 0.1 mM EDTA (pH 7.4, buffer 2). The resulting pellet was resuspended in buffer 2 and protein concentration was measured (BCA protein Assay, Pierce). The homogenate was kept cold during the whole procedure. The membranes were kept at −80° C. until use. Assay was performed in a 384 well Optiplate (PerkinElmer) in a total volume of 40 ul. Membranes were mixed with SPA beads.

Compared with B1, B2 is higher in “Ratio hCT/hAmylin binding” value: 20.5 for the first, 56.5 for the second.

Going from B3 to B4, the “Ratio hCT/hAmylin binding” value rises from 12.3 to 23.6.

What follows are binders tested against T2, rat calcitonin receptor (assay: SPA competition vs 125I-calcitonin, membranes with rat CTR (Assay VIII)).

First: B1
Second: B2
The IC50 of the first is 2.4-fold lower: 54.9 nM for the first, 131 nM for the second. The first is the more potent here.

Compared with B3, B4 is 1.8-fold higher in IC50: 62.5 nM for the first, 114 nM for the second.

What follows are binders tested against T2, rat calcitonin receptor (assay: ratio IC50 rat calcitonin receptor / IC50 rat amylin receptor).

First: B1
Second: B2
The “Ratio rCT/rAmylin binding” value of the first is higher: 44.9 for the first, 37.7 for the second.

First: B3
Second: B4
The “Ratio rCT/rAmylin binding” value of the first is lower: 28.5 for the first, 36.1 for the second.

These binders were tested against T3, rat amylin receptor (rat calcitonin …) (assay: SPA competition vs 125I-rat amylin, membranes with rat CTR + rat RAMP3 (Assay VI)).

First: B1
Second: B2
The IC50 of the first is 2.9-fold lower: 1.22 nM for the first, 3.48 nM for the second. The first is the more potent here.

B3 and B4 are within 1.5-fold of each other in IC50: 2.19 nM for the first, 3.14 nM for the second.
